Measured values: patent US20190330334A1 (KAO, published 2019)
Ends that are not written are not given here.

Legend:
[1] = target: T1, PEGylated N-terminus 13 amino acids of inactive GIP (GIP(3-15)), antigen (2) for measurement (also: PEGylated, site not given here); assay: ELISA, immobilized antigen, hybridoma culture supernatant
T1 construct: Immobilized on the ELISA plate; also called PEGylated GIP(3-15)
T1 peptide: EGTFISDYSIAMD
Method: (§1) The reaction between the hybridoma culture supernatant and the antigen (1) and (2) for measurement was evaluated by ELISA using immobilized antigen (1) and (2), and hybridomas that are positive for the antigen (1) and negative for the antigen (2) were selected as anti-active GIP monoclonal antibody-producing hybridomas.

[2] = target: T2, PEGylated N-terminus 15 amino acids of active GIP (GIP(1-15)), antigen (1) for measurement (also: PEGylated, site not given here); assay: as above
T2 construct: also called PEGylated GIP(1-15)
T2 peptide: YAEGTFISDYSIAMD
Method: as §1

inactive GIP, GIP(3-42) = target: T3, inactive GIP, GIP(3-42); assay: sandwich ELISA, anti-total GIP capture antibody, biotinylated m1 as detection antibody at 1 ug/mL
T3 peptide: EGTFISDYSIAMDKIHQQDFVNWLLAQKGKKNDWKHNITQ
Method: The reactivity between the monoclonal antibody prepared in Production Example 1 and active GIP was confirmed by ELISA. The amino group of the anti-active GIP monoclonal antibody was biotinylated with NH2 group biotinylation kit (manufactured by Dojindo Laboratories). ELISA was performed using the produced biotinylated anti-active GIP monoclonal antibody at 1 μg/mL instead of a detection antibody, GIP detection antibody (biotinylated anti-total GIP monoclonal antibody), included in Human (total) GIP ELISA kit (manufactured by EMD Millipore Corporation). A […] dilution series of GIP(1-42) or GIP(3-42) was prepared in 6 steps (8.2 to 2000 pg/mL) with a 2000 pg/mL solution as the highest concentration. By using an anti-total GIP monoclonal antibody (included in Human GIP (total) ELISA kit manufactured by EMD Millipore Corporation) as a capture antibody, the biotinylated anti-active GIP monoclonal antibody as a detection antibody, and a peroxidase-streptavidin conjugate for detection, sandwich ELISA was conducted to prepare a calibration curve with GIP concentration on the X-axis and 450 nm-590 nm absorbance on the Y-axis (FIG. 1).

binding result [1]: no binding
binding result [2]: binds
binding result (inactive GIP, GIP(3-42)): no binding (tested: 2000 pg/mL)
B1: anti-active GIP monoclonal antibody produced by hybridoma 9B9H5-B9 line (Production Example 1) (antibody, V domains shown)
VH: QVQLQQPGAELVKPGASVKLSCKASGYTFTSFWMHWVIQRPGQGLEWIGEMNPSDGRTHFNEKFKTKATLTIDTSSNTAYMELNSLTSEDSAVYYCARRMEDWGQGTLVTVSA
VL: DIKMTQSPSSMYASLGERVTITCKASQDINSYLGWFQQKPGKSPKTLIYGANRLVDGVPSRFSGSGSGQDYSLTISSLEYDDMGIYYCLQYDEFPLTFGAGTKLELKR
notes: also called anti-active GIP antibody; anti-GIP antibody
